Test results as given in patent US20230348629A1.

Molecular target: human TIGIT on HEK293A/human TIGIT cells (human) (UniProt Q495A1)
Experiment: cell-based or functional assay

Chain of human TIGIT on HEK293A/human TIGIT cells (human) (Q495A1 22-244 limits assumed): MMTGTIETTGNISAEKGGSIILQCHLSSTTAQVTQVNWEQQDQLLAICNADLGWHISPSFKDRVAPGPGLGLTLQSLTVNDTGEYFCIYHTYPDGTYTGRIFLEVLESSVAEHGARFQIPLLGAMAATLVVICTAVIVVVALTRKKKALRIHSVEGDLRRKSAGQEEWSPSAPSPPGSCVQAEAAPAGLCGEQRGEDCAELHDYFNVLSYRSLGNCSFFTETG

EC50, NK92 (NK92MI-CD16a) cell-mediated ADCC, LDH release: 0.511 nM
Substance: Tiragolumab (antibody)
EC50, PBMC-mediated ADCC, death rate of GFP+ cells by FACS: 0.311 nM
